Laboratory results reported in patent US20220296727A1, “Immunoconjugate” (DendroCyte BioTech Pty Ltd, priority 2019, published 2022).

Key:
[1] = tested on: HL-60; settings: comparator agents; cited from earlier work
[2] = tested on: U937; settings: comparator agents; cited from earlier work
[3] = tested on: THP-1; settings: comparator agents; cited from earlier work
[4] = target: human CD300f (human, UniProt Q8TDQ1 20-290); assay: cell-based or functional assay
[5] = tested on: HL-60 cells; assay: Internalisation assay by flow cytometry; assay type: cell-based
Procedure: DCR-2 (IgG1), and as an isotype control, the anti-tetanus toxoid mAb, CMRF-81 (IgG1) which were both produced, purified and directly conjugated to phycoerythrin (PE) in house (Abadir et al. Mol Oncol. 2019; 13(10):2107-2120). Cells were incubated with DCR-2-PE or CMRF-81-PE (10 μg/ml) on ice for 20 min, washed to remove unbound mAb then incubated at 37° C./5% CO2 to allow internalisation for the indicated times.
After incubation, residual mAb remaining on the cell surface was detected with a secondary goat anti-mouse (GAM) IgG-AF488 antibody. Cells were fixed in 1% paraformaldehyde/PBS for flow cytometry analysis. The surface and total relative Mean Fluorescent Index (MFI) was calculated as the (MFI of binding antibody at time point−MFI of isotype control at time point) at 37° C./(MFI of binding antibody at time point−MFI of isotype control at time point) at 0° C. The percent internalised was assessed by 100−(relative MFI surface staining/relative MFI total staining). In immunofluorescent microscopy experiments cells were stained with DCR-2 then air-dried and fixed with 4% paraformaldehyde or incubated for 37° C. for 30 minutes then fixed. Rehydration was performed using 1% BSA/PBS prior to staining with GAM IgG-AF488 antibody and 18 μM DAPI (ThermoFisher).

[6] = tested on: dendritic cells; assay: Activation marker expression on dendritic cells after LPS; assay type: cell-based, human; settings: HLA-DR, CD11c, CD80, CD83; 200 pmol
Procedure: The activity of DCR-2PBD on the upregulation of activation markers on DC was measured by incubating whole PBMC with DCR-2PBD or no antibody for […] before washing, followed by 12 hours of LPS stimulation. Control DC were not exposed to DCR-2PBD or LPS. Myeloid DC were gated out by excluding dead cells, Lin^+(CD3, CD20, CD19, CD56, CD14), then gating on HLA-DR^+ and CD11c^+ cells. The activation markers CD80 and CD83 were assessed via flow cytometry. The changes on activation were determined by comparing activated DC incubated with or without DCR-2PBD compared to inactivated DC.
PBMC were incubated in complete RPMI media with or without DCR-2-PBD (200 pmol). After 12 hours, washed cells were incubated for a further 12 hours with or without LPS then phenotyped for the expression of activation markers on DC populations. MoDC were derived from CD14+ monocytes as described previously (Fromm et al. J Leukoc Biol. 2020; 107(2):323-339). DCR-2-PBD or isotype-PBD (200 pmol) were added for 72 hours prior to enumeration of live cells by flow cytometry.

[7] = tested on: AML; assay: NOS/SCID mouse model of AML; assay type: in vivo; settings: unconjugated antibody alone

human CD300f, sequence (Q8TDQ1 20-290): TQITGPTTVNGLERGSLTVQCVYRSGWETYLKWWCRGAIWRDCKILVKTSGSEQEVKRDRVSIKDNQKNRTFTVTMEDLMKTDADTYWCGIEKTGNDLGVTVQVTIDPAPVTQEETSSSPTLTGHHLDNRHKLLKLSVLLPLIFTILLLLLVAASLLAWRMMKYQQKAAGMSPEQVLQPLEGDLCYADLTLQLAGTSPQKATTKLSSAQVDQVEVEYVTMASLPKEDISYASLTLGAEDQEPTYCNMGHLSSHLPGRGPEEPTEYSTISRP

Molecule: COc1cccc2c1C(=O)c1c(O)c3c(c(O)c1C2=O)C[C@@](O)(C(=O)CO)C[C@@H]3O[C@H]1C[C@H](N)[C@H](O)[C@H](C)O1 [Doxorubicin]
- IC50 [1]: 345000 nM

Molecule: CS(=O)(=O)OCCCCOS(C)(=O)=O [Busulfan]
- IC50 [1]: 354000 nM

Molecule: Gemtuzumab-Ozogamicin: approved AML therapeutic which targets CD33
- IC50 [1]: 0.0133 nM
- IC50 [2]: 0.127 nM
- IC50 [3]: 0.04 nM

B1: DCR-2-pyrrolobenzodiazepine (PBD) immunoconjugate (antibody, V domains shown)
VH: MESGGGLVQPGGPLKLSCAASGFGFSGSWMSWVRQAPGKGLEWIGQINPDSSTINYTPSLKDKFIISRDNAKNTLYLQINKVRSEDTALYYCARRGFFEGYSAWFAYW
VL: ILMTQTPKFLLVSAGDRVTITCKASQSVSNDVAWYQQKPGQSPSLLIYYASNRNTGVPDRFTGSGYETDFTFTISTVQAEDLAVYFCQQDYTSPWTFGGG
modifications: PBD dimer linked through the Cathepsin B-cleavable linker MA-PEG4-VA-PBD to native cysteines (reduced interchain disulfides); drug to antibody molar ratio 3.3; positions not given
- IC50 (pM), cytotoxicity on HL-60 cells [4]: 5.45 pM
- IC50 (pM), cytotoxicity on THP-1 cells [4]: 29.9 pM
- IC50 (pM), cytotoxicity on U937 cells [4]: 6.74 pM

B2: DCR-2: murine IgG1 kappa monoclonal antibody binding the extracellular domain of CD300f; hybridoma CBA20160029 (antibody, V domains shown)
VH: B1 VH
VL: B1 VL
- Internalisation ([5]; 30 minutes): significant
- Internalisation ([5]; 180 minutes): greater than 50%
- up-regulation of activation markers on dendritic cells after LPS [6]: does not prevent upregulation of activation markers CD80 and CD83
- survival and disease burden [7]: does not prolong survival or reduce disease burden
